As usually defined, the EC50 (read off the curve) is the concentration needed to bring the measured effect to its halfway point. The low end stands for an effect from little substance, the high end for a need for much substance.

Positions count from the first letter of the chain named.

The values that follow come from patent publication US20200199231A1 (Genmab, published 2020).

The target of assay [1] is T1, human CD20 (human, UniProt P11836 1-297).
T1 construct: whole, on cells; On Daudi and other human B cell lines, on human B cells in blood, or transiently expressed in HEK293F cells (construct pEE12.4CD20HS-GA); also called wild type CD20; WT CD20
T1 sequence (looked up): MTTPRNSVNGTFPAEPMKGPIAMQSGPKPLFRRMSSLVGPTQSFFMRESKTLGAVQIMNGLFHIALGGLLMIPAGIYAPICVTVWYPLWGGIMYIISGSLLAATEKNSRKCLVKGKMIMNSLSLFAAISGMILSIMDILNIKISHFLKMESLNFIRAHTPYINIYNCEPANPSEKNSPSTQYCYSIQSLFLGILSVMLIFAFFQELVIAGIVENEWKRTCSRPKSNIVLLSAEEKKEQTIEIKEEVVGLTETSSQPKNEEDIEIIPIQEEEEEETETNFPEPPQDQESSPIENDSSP
In words: flow cytometry on Daudi cells (CD20-positive, CD3-negative); PE-conjugated goat anti-human IgG F(ab')2; geomean (PE). The procedure: (§1) In addition to the non-activating mutations, L234F, L235E, D265A, on both arms, the bispecific antibody contained an F405L mutation on one arm and a K409R mutation on the other arm.
(§2) Cells (1×10⁵ cells/well) were incubated in polystyrene 96-well round-bottom plates (Greiner bio-one, cat. no. 650101) with serial dilutions of antibodies (range 0.041 to 30 μg/mL in 3-fold dilution steps [A-E] and 0.00061 to 10 μg/mL in 4-fold dilution steps [F-I]) in 100 μL PBS/0.1% BSA/0.02% azide (from here designated as staining buffer) at 4° C. for 30 min.
(§3) After washing twice in staining buffer, cells were incubated in 50 μL secondary antibody at 4° C. for 30 min. As a secondary antibody, R-Phycoerythrin (PE)-conjugated goat-anti-human IgG F(ab′)₂ (cat. no. 109-116-098, Jackson ImmunoResearch Laboratories, Inc., West Grove, Pa.) diluted 1:200 in staining buffer, was used for all experiments. Next, cells were washed twice in staining buffer, re-suspended in 30 μL staining buffer and analyzed on an iQue screener (Intellicyt Corporation, USA) (for FIG. 1A-E) or re-suspended in 100 μL staining buffer and analyzed on a FACSCANTOII (BD Biosciences) (FIG. 1F-I). Binding curves were analyzed using non-linear regression (sigmoidal dose-response with variable slope) using GraphPad Prism V75.04 software (GraphPad Software, San Diego, Calif., USA).

In assay [2] the target is T1, human CD20. The experiment in a line: flow cytometry on Daudi cells (CD20-positive, CD3-negative); PE-conjugated goat anti-human IgG F(ab')2; median FI (PE). The procedure:
as §1, §2, §3

The target in assay [3] is T2, CD20-AxP (human, UniProt P11836 1-297).
T2 construct: whole, on cells; Transiently expressed in HEK293F cells; also called AxP mutant; CD20 mutant (CD20-AxP)
T2 sequence (looked up): T1 sequence (looked up) with A170S, P172S
The experiment in a line: flow cytometry on HEK293F cells transiently expressing CD20-AxP (A170S/P172S); PE-conjugated goat anti-human IgG F(ab')2; MFI. The procedure: (§4) PCR was performed on a Tgradient Thermocycler 96 (Biometra) using a 35 cycle program of: +95° C. for 15 min, followed by 35 cycles of: +94° C. for 30 sec, anneal: 55° C. for 30 sec and extension: +72° C. for 2 min, followed by a final extension step at 72° C. for 10 min and subsequent storage at 4° C. The completed reactions were analyzed by agarose gel electrophoresis. See Table 11 for details of primer pairs used for colony PCR. DNA sequencing: Plasmid DNA samples were send to AGOWA (Berlin, Germany) for sequence analysis. Sequences were analyzed using the VectorNTI software package (Informax, Frederick, Md., USA).
(§5) Mutagenesis: The mutagenesis was performed, using the QuikChange® XL Site-Directed Mutagenesis kit (Cat 200517-5, Lot 1120630, Stratagene Europe) according to the manufacturer's instructions. Mutagenesis reactions were concentrated using ethanol precipitation and transformed into either oneshot DH5α-TIR competent E. coli cells or electroporated into ElectroTen-Blue® Electroporation-Competent Cells. Colonies were checked by colony PCR and restriction digestion prior to transfection. […] Anti-CD20 Antibody binding: HEK293F cells were taken up in staining buffer (PBS supplemented with 0.1% BSA and 0.02% NaN₃) and added to round bottom plates (1-3×10⁵/well in 100 μL). […] After washing twice in staining buffer, cells were incubated in 50 μL secondary antibody at 4° C. for 30 min. As a secondary antibody, R-Phycoerythrin (PE)-conjugated goat-anti-human IgG F(ab′)₂ was used, as described supra. Next, cells were washed once in staining buffer, re-suspended in 150 μL staining buffer and analyzed on a flow cytometer (FACSCanto-720, Becton Dickinson, San Diego, Calif., USA) and 10,000 events per sample were acquired at high flow rate. Binding curves were analyzed using non-linear regression (sigmoidal dose-response with variable slope) using GraphPad Prism V75.04 software (GraphPad Software, San Diego, Calif., USA).
In general terms: A flow cytometer gives signals particle by particle.

Assay [4] concerns the target T1, human CD20. The experiment in a line: flow cytometry on HEK293F cells transiently expressing wild type CD20; PE-conjugated goat anti-human IgG F(ab')2; MFI. The procedure:
as §4, §5

Assay [5] deals with T3, CD20 KDD mutant (human, UniProt P11836 1-297).
T3 construct: whole, on cells; Transiently expressed in HEK293F cells; also called T159K/N163D/N166D
T3 sequence (looked up): T1 sequence (looked up) with T159K, N163D, N166D
The experiment in a line: flow cytometry, HEK293F cells expressing CD20 KDD mutant. As for the experimental part:
as §4, §5

In assay [6] the target is T3, CD20 KDD mutant. In words: flow cytometry, HEK293F transfectants, MFI mutant/MFI wt at 10 µg/mL. As for the experimental part: (§6) As a secondary antibody, R-Phycoerythrin (PE)-conjugated goat-anti-human IgG F(ab′)₂ was used, as described supra. Next, cells were washed once in staining buffer, re-suspended in 150 μL staining buffer and analyzed on a flow cytometer (FACSCanto-720, Becton Dickinson, San Diego, Calif., USA) and 10,000 events per sample were acquired at high flow rate. Binding curves were analyzed using non-linear regression (sigmoidal dose-response with variable slope) using GraphPad Prism V75.04 software (GraphPad Software, San Diego, Calif., USA).
(§7) Numbers indicate the percentage of binding to the CD20 mutants, relative to binding to wild type CD20, at 10 μg/mL. The percentage of binding was calculated by the following formula: (MFI binding to CD20 mutant)/(MFI binding CD20 wt) × 100%

Assay [7] addresses T2, CD20-AxP. The description is as above. The procedure: as §6, §7
The target of another assay is T4, human CD3 (human, UniProt P07766 22-207).
T4 construct: CD3 as part of the TCR complex on Jurkat cells or human T cells; also called human CD3ε (epsilon)
T4 sequence (P07766 22-207 limits assumed): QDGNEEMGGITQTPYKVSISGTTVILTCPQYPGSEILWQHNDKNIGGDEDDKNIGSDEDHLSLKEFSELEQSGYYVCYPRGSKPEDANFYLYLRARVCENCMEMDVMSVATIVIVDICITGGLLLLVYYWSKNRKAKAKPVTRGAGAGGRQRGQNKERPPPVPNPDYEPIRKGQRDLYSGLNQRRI
The experiment in a line: flow cytometry on Jurkat cells (CD3-positive, CD20-negative); PE-conjugated goat anti-human IgG F(ab')2; median FI (PE). As for the experimental part:
as §1, §2, §3

B1: IgG1-11B8 (antibody, V domains shown)
VH: EVQLVQSGGGLVHPGGSLRLSCTGSGFTFSYHAMHWVRQAPGKGLEWVSIIGTGGVTYYADSVKGRFTISRDNVKNSLYLQMNSLRAEDMAVYYCARDYYGAGSFYDGLYGMDVWGQGTTVTVSS
VL: EIVLTQSPATLSLSPGERATLSCRASQSVSSYLAWYQQKPGQAPRLLIYDASNRATGIPARFSGSGSGTDFTLTISSLEPEDFAVYYCQQRSDWPLTFGGGTKVEIK
notes: Monospecific, bivalent IgG1
For the molecule B1, in the assay with human CD20 [1], the “EC50 (read off the curve)” value was roughly 2 µg/mL.

B2: IgG1-7D8 (antibody, V domains shown)
VH: EVQLVESGGGLVQPDRSLRLSCAASGFTFHDYAMHWVRQAPGKGLEWVSTISWNSGTIGYADSVKGRFTISRDNAKNSLYLQMNSLRAEDTALYYCAKDIQYGNYYYGMDVWGQGTTVTVSS
VL: B1 VL with D93N, L96I, G100Q, K103R, V104L
notes: Monospecific, bivalent IgG1
B2: the “EC50 (read off the curve)” value in the assay with human CD20 [1] was roughly 0.6 µg/mL.

B3: bsIgG1-huCLB-T3/4-FEALxCD20-7D8-FEAR (bispecific antibody)
heavy 1: EVQLVESGGGLVKPGGSLRLSCAASGFTFSSYGMFWVRQAPGKGLEWVATISRYSRYIYYPDSVKGRFTISRDNAKNSLYLQMNSLRAEDTAVYYCARRPLYGSSPDYWGQGTLVTVSSASTKGPSVFPLAPSSKSTSGGTAALGCLVKDYFPEPVTVSWNSGALTSGVHTFPAVLQSSGLYSLSSVVTVPSSSLGTQTYICNVNHKPSNTKVDKRVEPKSCDKTHTCPPCPAPEFEGGPSVFLFPPKPKDTLMISRTPEVTCVVVAVSHEDPEVKFNWYVDGVEVHNAKTKPREEQYNSTYRVVSVLTVLHQDWLNGKEYKCKVSNKALPAPIEKTISKAKGQPREPQVYTLPPSREEMTKNQVSLTCLVKGFYPSDIAVEWESNGQPENNYKTTPPVLDSDGSFLLYSKLTVDKSRWQQGNVFSCSVMHEALHNHYTQKSLSLSPGK
VL 1: EIVLTQSPATLSLSPGERATLSCSASSSVTYVHWYQQKPGQAPRLLIYDTSKLASGIPARFSGSGSGTDFTLTISSLEPEDFAVYYCFQGSGYPLTFGSGTKLEMR
heavy 2: EVQLVESGGGLVQPDRSLRLSCAASGFTFHDYAMHWVRQAPGKGLEWVSTISWNSGTIGYADSVKGRFTISRDNAKNSLYLQMNSLRAEDTALYYCAKDIQYGNYYYGMDVWGQGTTVTVSSASTKGPSVFPLAPSSKSTSGGTAALGCLVKDYFPEPVTVSWNSGALTSGVHTFPAVLQSSGLYSLSSVVTVPSSSLGTQTYICNVNHKPSNTKVDKRVEPKSCDKTHTCPPCPAPEFEGGPSVFLFPPKPKDTLMISRTPEVTCVVVAVSHEDPEVKFNWYVDGVEVHNAKTKPREEQYNSTYRVVSVLTVLHQDWLNGKEYKCKVSNKALPAPIEKTISKAKGQPREPQVYTLPPSREEMTKNQVSLTCLVKGFYPSDIAVEWESNGQPENNYKTTPPVLDSDGSFFLYSRLTVDKSRWQQGNVFSCSVMHEALHNHYTQKSLSLSPGK
VL 2: B1 VL with D93N, L96I, G100Q, K103R, V104L
notes: also called huCLB-T3/4x7D8; bsIgG1-huCLB-3/4-FEALxCD20-7D8-FEAR
For the molecule B3, the “EC50 (read off the curve)” value with human CD20 [2] was roughly 0.8 µg/mL; with CD20-AxP [3], roughly 0.2 µg/mL; in the assay with human CD20 [4] it was roughly 0.1 µg/mL; in the assay with human CD3, roughly 0.1 µg/mL. Moreover, the binding result in the assay with CD20 KDD mutant [5] is listed as “no binding (tested: 0.0015-10 µg/mL)”. In addition, the entries for the “% of wt CD20 binding” value with CD20 KDD mutant [6] and in the assay with CD20-AxP [7] were 3% and 113%, respectively.

B4: bsIgG1-huCLB-T3/4-FEALxCD20-2F2-FEAR (bispecific antibody)
heavy 1: B3 heavy 1
VL 1: B3 VL 1
heavy 2: B3 heavy 2 with D15G, H30N, T57S, N77K
VL 2: B1 VL with D93N, L96I, G100Q, K103R, V104L
notes: also called huCLB-T3/4x2F2; bsIgG1-huCLB-3/4-FEALxCD20-2F2-FEAR
In the case of B4, the “EC50 (read off the curve)” value with human CD20 [2] was roughly 0.3 µg/mL; with CD20-AxP [3], roughly 0.2 µg/mL; with human CD20 [4], roughly 0.1 µg/mL; in the assay with human CD3, roughly 0.06 µg/mL. Besides, the binding result with CD20 KDD mutant [5] is “no binding (tested: 0.0015-10 µg/mL)”. The “% of wt CD20 binding” value in the assay with CD20 KDD mutant [6] was found to be 5%; with CD20-AxP [7], 112%.
